The values below come from US20250339569A1, “CARBONIC ANHYDRASE IX LIGANDS” (priority 2021, published 2025).

The term pKd denotes the Kd on a negative log10 scale, so that one unit is a factor of ten.

Assay [1] concerns the target murine carbonic anhydrase 9 (CAIX) (mouse) (UniProt Q8VHB5). Kind of assay: radioligand saturation binding on CHO-msCAIX cells, 8 h at 37 °C, single experiment.
For assay [2] the target is unchanged. Kind of assay: radioligand saturation binding on CHO-msCAIX cells, 8 h at 37 °C, experiment i.

murine carbonic anhydrase 9 (CAIX) (mouse), sequence (Q8VHB5 32-437 limits assumed): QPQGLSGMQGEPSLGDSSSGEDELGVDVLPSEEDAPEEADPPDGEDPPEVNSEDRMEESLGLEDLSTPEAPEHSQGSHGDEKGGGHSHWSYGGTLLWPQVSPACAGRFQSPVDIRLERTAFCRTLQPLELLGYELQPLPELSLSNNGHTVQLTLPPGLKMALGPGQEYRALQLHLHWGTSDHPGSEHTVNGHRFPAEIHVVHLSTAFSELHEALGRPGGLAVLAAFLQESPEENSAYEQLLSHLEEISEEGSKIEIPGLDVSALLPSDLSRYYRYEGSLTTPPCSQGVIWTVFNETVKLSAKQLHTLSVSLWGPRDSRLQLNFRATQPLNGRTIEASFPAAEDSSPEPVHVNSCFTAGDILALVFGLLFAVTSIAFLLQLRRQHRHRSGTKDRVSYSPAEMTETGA

In turn, [^111In]In-DPI-4452 (peptide) displayed a Mean Bmax in assay [1] of 5.6 fmol/µg prot. In addition, in assay [2], the Bmax amounted to 5.6 fmol/µg prot and the negative logarithm of the Kd (pKd) is 7.2 -log10(M).
